Data on one substance can be found in publication PMC8537121.

In assay [1] the target is Human MAP/Microtubule Affinity Regulating Kinase 4 (MARK4), recombinant, containing both kinase and UBA domains (human) (UniProt Q96L34). Kind of assay: ITC; VP-ITC; 15 µM MARK4 in the sample cell, 200 µM irisin in the syringe; two-site model. A general note: ITC needs no label: the signal is the heat of the interaction.
Assay [2] has the same target.
Assay [3] shares this target. Kind of assay: other fluorescence titration; quenching of the intrinsic fluorescence of MARK4 (emission at 344 nm) by irisin, 0-1 µM; fitted to a modified Stern-Volmer equation.

Chain of UniProt Q96L34 (Q96L34 44-370): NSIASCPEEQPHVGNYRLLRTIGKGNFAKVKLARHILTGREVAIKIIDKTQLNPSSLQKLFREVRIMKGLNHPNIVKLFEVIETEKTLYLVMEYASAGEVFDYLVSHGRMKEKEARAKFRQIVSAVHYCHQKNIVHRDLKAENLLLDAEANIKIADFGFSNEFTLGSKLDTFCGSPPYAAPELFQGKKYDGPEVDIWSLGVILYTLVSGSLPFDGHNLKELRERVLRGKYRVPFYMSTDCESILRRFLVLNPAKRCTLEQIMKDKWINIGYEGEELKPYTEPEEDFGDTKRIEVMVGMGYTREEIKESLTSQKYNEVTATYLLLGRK

Consider Human irisin (natural protein), for which, in assay [1], the Ka1 (site 1 of the two-site model) worked out at 2590 M⁻¹, the Ka2 (site 2 of the two-site model) stood at 1.19e+06 M⁻¹, the dH1 (site 1 of the two-site model) was -1550 kcal/mol and the dH2 (site 2 of the two-site model) worked out at 190 kcal/mol. For the same substance, in assay [2], the IC50 of inhibition of MARK4 kinase activity (ATPase assay), irisin 0-15 µM stood at 2710 nM. Moreover, the Ka in assay [3] was determined as 8e+06 M⁻¹.
